Here are results for 20 sequences from the DeepSol protein solubility set.

The data set is described as follows: soluble on expression in E. coli; label from the status in PepcDB or PDB records.
As for “MGSDKIHHHHHHMPLTNHTPEDRVQDIFDHIAPQYDQMNSVISLGTHHWWRQRVMQAMTLHAGDFALDVCCGTGDWTIALAQAVGPAGHVVGFDFSGVMLQHATTKVRQAQLDDRITLRQGDAMQLPYPDNYFNVVTIGFGLRNVPDATQVLREMARVVKPGGQVVCLETSQPTNPLVHAGWQVYFGHVVPLMGRLAHHYQAYNYLQSSTHHFVSAKELSRLFTAAGLTQVHYDLFNLGAAAVHWGRKPY”, the “soluble on expression in E. coli” value was “not soluble”.

Take “MSLAKLNMNNEIKKVEQRLEKAIKSKDSVLEQASLHLLSSGGKRVRPAFVILSSQFGKDEQTSEQTYQVAVALELIHMATLVHDDVIDKSDKRRGKLTISKKWDQTTAILTGNFLLALGLEHLMAVKDNRVHQLISESIVDVCRGELFQFQDQFNSQQTIINYLRRINRKTALLIQISTEVGAITSQSDKETVRKLKMIGHYIGMSFQIIDDVLDFTSTEKKLGKPVGSDLLNGHITLPILLEMRKNPDFKLKIEQLRRDSERKEFEECIQIIRKSDSIDEAKAVSSKYLSKALNLISELPDGHPKSLLLSLTKKMGSRNTEGHHHHHH”: the “soluble on expression in E. coli” value is “soluble”.

Take “MASGDLVRYVITVMLHEDTLTEINELNNYLTRDGFLLTMTDDEGNIHELGTNTFGLISTQSEEEIRELVSGLTQSATGKDPEITITTWEEWNSNRK”: the “soluble on expression in E. coli” value is on record as “soluble”.

Consider “ESYWRSRMIDAVTSDEDKVAPVYKLEEICDLLRSSHVSIVKEFSEFILKRLDNKSPIVKQKALRLIKYAVGKSGSEFRREMQRNSVAVRNLFHYKGHPDPLKGDALNKAVRETAHETISAIFSEENG”, for which the “soluble on expression in E. coli” value is on record as “soluble”.

As for “GMKQDSIITLHPDDRSEQTAEIMRRFNDVFQLHDPAALPELIAEECVIENTVPAPDGARHAGRQACVQLWSAIATQPGTRFDLEETFVAGDRATIRWRYWMADGNSVRGVNLMRVQDGRIVEAMGYVKG”, the “soluble on expression in E. coli” value was “soluble”.

As for “MKHFRKELWFETRQRRQFINITPTVRECLRESGIREGLLLCNAMHITASVFINDDESGLHHDFEVWLEGLAPEKPYDRYRHNGYEDNADAHLKRTVMGREVVVAVTAGELDLGPWEQIFYGEFDGKRRKRVLIKIIGELEHHHHHH”, the “soluble on expression in E. coli” value was “not soluble”.

Regarding “MGSDKIHHHHHHLLQRTFNIQHHSSLPLLSILSYFPTSLLKPGGRMAIVLPQGRFNNSSDKNIRDFIAERCRILAVVGLHGNTFKPHTGTKTSVLFVQKWNDDPKAGALCPRQDDYNIFFATMRKSGKDNSGDKIWRKISSSTASPPDDELSDLMPPSPVQRVVGVEGDFLRDNHEHLVVDHDLYNHEGKTEDGIAEAFIEFAKKENFSFFELSPSVTPFDAVKYQQLMDGLEAVEVSLNQALDHNLHFRFDSEFFKRIYFQVEAEIKALPHTRLSSTQPIIIHPTEIKREYVEDDSSGVLFFRTQNLRPLRVDLSNQVYISEEDAAKLSKNIIQKNDVLITITGANFGDTLIFKGEIEAIALSHVFILRNKKISQSFLAVFLNTFYGREQINKGMYGGV”, the “soluble on expression in E. coli” value is reported as “not soluble”.

Take “REFAPPPNLPDPKFESKAALLAARGPEELLCFTERLEDLVCFWEEAASAGVGPGQYSFSYQLEDEPWKLCRLHQAPTARGAVRFWCSLPTADTSSFVPLELRVTAASGAPRYHRVIHINEVVLLDAPVGLVARLADESGHVVLRWLPPPETPMTSHIRYEVDVSAGQGAGSVQRVEILEGRTECVLSNLRGRTRYTFAVRARMAEPSFGGFWSEWSEPVSLLTPSDLD”: the “soluble on expression in E. coli” value was “soluble”.

For “MTEQTSPESLTDGAHSKTDSAWPLACNLEPRLVSRGRWQTTQWMLHGFSLTPEAQSQYVATLHLYRDERTDYRFNLSSQAPKLFLVAEDPIEDQPLKVVQLTASQAVASRYMDSDYLVLSADMPLPVQALMEAYIGRHGELLEIRRKKREGAGRSCGN”, the “soluble on expression in E. coli” value is given as “not soluble”.

Take “WDPPYLQIAFDNPNLEFVLSAISEIPKSDHVIIEAGTPLIKRYGTDVISKIRQVRPDAFIVADLKTLDTGNLEARMVADAAGDAIVVSALAPISTIDKLIEEAHKTGIYAVMDTLNQQDPISVLKQLKVMPDVIELHRGIDIEGTEHAWGNIGEIKKIAPKALVAVAGGVRLDKVPVALSQGADILVVGRAITNAKDVREMAEQFINSLNK”: the “soluble on expression in E. coli” value was “soluble”.

For “MSEDVSKNLSETLFVKHKQAKETSALTQYMPTSKKILDDREQQEDRAWYRHLRRLQWAWQGLSPIEMEGVLSRIASSTHSRTHDDWLDTVMGYHSGNWTFEWIKLGMEHQRRANDLKGEDAADELFTASLCFSIAGYPHLKNDNLALQAQVLANKAYSEGAEKTQYTIKQIEVPYQKRKIIANLHLPRTDKQLPVVMVSAGLDSLQTDMWRLFRNHFAPKDIAMLTVDMPSVGHSSHWPLTEDSSCLHQAVLNELYSIPYVDHHKVGLVGFRFGGNAMVRLSFLEQEKIKACVALGAPVHDLFTSPKKLQKMPKMYLDMLASRLGKSAVDINSMAGQMMAWSLKVQGFLSSRKTKVPILALSLEGDPVSPYSDNQLVALFSHYGQAKKISSKTITKGYEQSLDLAIKWLEDELLR”, the “soluble on expression in E. coli” value was “not soluble”.

Consider “MVEFVNDPNFKDLVVDTTIDNRNDEEPMTIRNFTELMIQFYKLGWMRGSGGAMGCISGSELMISPSALQKERIREQDVFVYNMKDKTEVQRPPNKRITVSSCSVLFSLIMKETGSECVIHTHSKCANLITQLIKSNVFEISHQEYIKGIYDPFSGKALKYSDTLTIPIIDNMPSESQLLVCAINRSPMQPDCFINIALFQEPIRGVLENYPQAIAVLVRNHGLFVWGPTWESTKIMTECIDYLLELSIEMLKNNIPLVNEEAFEKEDNLSDKMRTLMFGDMAPV”, for which the “soluble on expression in E. coli” value was “not soluble”.

As to “MKTKVICLVRVSTQDQDYQRQISDLTKYSQARDFVIVDFISEKVSGTKRNEERNGIQELLKRARKKEFQKVIVQEISRLGRNPFQVQRVIEELAELSISVVVQNMNLETLDEGGNRNGFIDLMLSTAVHFSSIERSWIVNRIRSGQKNSKKKIGRPFNTFESKEAVLKKYAAVVRDLKSGISIRKVAKLNDLSTPTIQRVKKLMQEL”, the “soluble on expression in E. coli” value is given as “not soluble”.

Consider “SANEAYPCPCDIGHRLEYGGLGREVQVEHIKAYVTKSPVDAGKAVIVIQDIFGWQLPNTRYIADMISGNGYTTIVPDFFVGQEPWDPSGDWSIFPEWLKTRNAQKIDREISAILKYLKQQCHAQKIGIVGFCWGGTAVHHLMMKYSEFRAGVSVYGIVKDSEDIYNLKNPTLFIFAENDVVIPLKDVSLLTQKLKEHCKVEYQIKTFSGQTHGFVHRKREDCSPADKPYIDEARRNLIEWLNKYM”, for which the “soluble on expression in E. coli” value is on record as “soluble”.

“MGSDKIHHHHHHMLSNLVSEFPQHEPRPANAPRALEGIRVVDFTHFIAGPFATMMLADMGAEVIKIEAPGRGDEFRYYPPAHPQDESIGAPYLWANRNKRSIALDLKHEDGRRIARELIATADVVAENFSTGVMERLGLGYEACRESNPELIYCSVSAYGREGAFADRLGFDPVAQAESGFVSMNGYPDRLGVRALSPVMDISTAMMASNAILGALVARERSGKGQAVEVSLFDNAVLMTGYATVQHLFTGDEPQRHGNTSPDTCPSGVFKASDGAFYINCGNNKIFHRLASQVLEMPELAADPVLADRNGRIARRDELFRILDEAFIRHPWAYWQQRMRAASIPCGEVRSVGEALRSAEARERKLVSRLEHPDLGWLPNISLPFRFSETPMEDPSPAPRIGEHSRDILTHVLGYEDDSASALLDSGVVYSSVEKARAG”: the “soluble on expression in E. coli” value was “not soluble”.

For “MSLKWSAIPFQTLYRSIESGEFDFDLFKEVLPDLQNLNLNTDKLKNNASRSQLEKGEIELSDGSTFKVNQEFIFEAISLSDELNLDEIVACELILSGDTTANNGKVQYFLRRQYILQIVSFIVNCFHEDTELYQELIKNGALVSNILSAFKFIHTQLSEIKQQINKAQILENYNALFQQNIKFRRDFLLREYDILSQILYGLVDKGAIMKNKDFILSLLHHVSELDSNDFFIIYYTPAFFHLFASLRVLPDADVKLLHSQFMKDLKDDSIYTKPVKVALIFIFFAYFIGWCKEDPKRRADTMDFKTDVDEPMTSAVELGAIEQILIFAADTSIVEQDKSMELFYDIRSLLERHIPRLIPKQLLDDEKIFSQTTNSTYNPASATDNMSGRGLWNPSYPGMMSTTGTARLNSMPNNVNEYSYTTIVLSDQTQEFFLSSFDDVLQTIITDCAFLLTKIKDAEEDSLLSGEDLTLDDISLKADLERFFLSIYFFYASRPEYSCTFWSDKESNAYGFIEWCSRCNDNLMRSCFYLMVSSLSFGPENALNVYHYFGENSSISWKNIAQCLSDYTKKISNFNSSLHKRQQFSESTHNDIDSTAVALEEGLNEEAVIFLSSLLTLVGSVTYQVDEDVKSSLSKVFSDVLFEFTKINTPLVGAAFKVISNLVPKLESSRTKFWSFLDSLIFKDSSLNYSSESYRNAFTNVLTKYSDVLGFLQLFHNLISIHSRENNSEYMVFGKLAFPTRLGQGYRKVGIWPYFDYIFNDILAHVDQIVDIRNKRAVQLPILKIIYTGLCSFDYSVILNSIPAAANLDALVDCENFFNYVQECPAIPIFNYIFTEKIYKSIFNVVDVGVDQLSIELEGGKNQAELLQLAVKIINKVLDYQETYVEELFPIVKKHGKTDYFLPKNYSLHGLRSFYDAIFFNIPLVAHLGLYVGVDDQILATNSLRILAKLSERSNGSVASLSEGHHHHHH”, the “soluble on expression in E. coli” value is “soluble”.

Turning to “MAHHHHHHMAIVGDSLNKRRNYTVCGLVSNPLFQKCAEVAQYVAEEYSDEFYVDIFREMPCEFYSRREQLLNSKKIEDGGMEVIVLVGADGHTGPTNGEGEAMSGDDFLNMMQKATCFRVLNIPPERPDSYENMAHLSWKNYLRERGNTYCWMEISIGEMVHGRVTFELYSRVVPHTCSNFWHLCKGDLSRDADEGEEQVPILSYKNSTFFRTLHGAWVMGGDISGGNGRGGYSIYGRYFPNESYAIPHDRVGVLGMCNDGGDTNASSFYITMKAMQWMNGRYVAFGRVVDGLEVVHAIHAVDVKHNQCPKKVITISDCGVIDLTE”, the “soluble on expression in E. coli” value was “not soluble”.

“MLFSKETLKSFAQSKGISNIDDDALRVLSQDLEYRIKEVCQEGSKFMVGSKRTKLSIDDINYALTSRNVDPLFGYDPQESLVFRGLPSNVYYVPDEEIDLEEYLDRPLPKVPLRVSIQSHWLAIEGVQPQIPYNPILLEKPVAKKDTLGTYQEEAELKSQNKHMLTKELGMYFDKVIQAMESDEQTAMECLHNESGIQQLVPYFVHHFNEQIVKNIKNKEKLMTVVMVYSSLLKNKYIFVDPYLHQILPSLITCVIGKNVDDDVRKVAADVVKYVFSNFSSSYKTLAPRIINTLSKAWLDREKTESTQYGALFCLSILSKHVVETVIKPKADYYVREINNPRVVGLLKDILQSNGL”: the “soluble on expression in E. coli” value is on record as “soluble”.

Consider “MHHHHHHMSGGLTPDQAIDAIRGTGGAQPGCRALHAKGTLYRGTFTATRDAVMLSAAPHLDGSTVPALIRFSNGSGNPKQRDGAPGVRGMAVKFTLPDGSTTDVSAQTARLLVSSTPEGFIDLLKAMRPGLTTPLRLATHLLTHPRLLGALPLLREANRIPASYATTEYHGLHAFRWIAADGSARFVRYHLVPTAAEEYLSASDARGKDPDFLTDELAARLQDGPVRFDFRVQIAGPTDSTVDPSSAWQSTQIVTVGTVTITGPDTEREHGGDIVVFDPMRVTDGIEPSDDPVLRFRTLVYSASVKLRTGVDRGAQAPPV”, for which the “soluble on expression in E. coli” value is given as “soluble”.

With “MLAEIKGLNEECGVFGIWGHENAAQVSYYGLHSLQHRGQEGAGIVVNNGEKIVGHKGLGLISEVFSRGELEGLNGKSAIGHVRYATAGGSEVANVQPLLFRFSDHSMALAHNGNLINAKMLRRELEAEGSIFQTSSDTEVLLHLIKRSTKDSLIESVKEALNKVKGAFAYLLLTGNEMIVALDPNGFRPLSIGKMGDAYVVASETCAFDVVGATYIRDVEPGELLIINDEGIHVDRFTNEVDHAICSMEYIYFARPDSNIAGINVHAARKNMGKRLAAEAPIEADVVTGVPDSSISAAIGYAEATGIPYELGLIKNRYVGRTFIQPSQELREQGVKMKLSAVRGVVEGKRVVMIDDSIVRGTTSKRIVRMLREAGATEVHVRIASPPLKYPCFYGIDIQTRKELIAANHTVEEIREMIGADSLTFLSEDGLVDAIGRPYEGKYGGLCMAYFNGDYPTALYDYEQELLESMK”, the “soluble on expression in E. coli” value is reported as “not soluble”.
